From patent US20160222124A1 (published 2016)
Blank lines part the entries; values can stand above or below the binder they belong to.

Key:
human CD40 (cellular) [1] = target: T1, human CD40 (cellular) (human, UniProt P25942 21-277); experiment: flow cytometry; CD40-transfected HEK-293 cells
B cells Human = B cells Human (human, UniProt P25942 21-277); experiment: flow cytometry, whole blood; human B cells
B cells Cynomolgus = target: T2, B cells Cynomolgus (cynomolgus monkey, UniProt G7PG38 21-278); experiment: flow cytometry, whole blood; cynomolgus B cells
T2 chain: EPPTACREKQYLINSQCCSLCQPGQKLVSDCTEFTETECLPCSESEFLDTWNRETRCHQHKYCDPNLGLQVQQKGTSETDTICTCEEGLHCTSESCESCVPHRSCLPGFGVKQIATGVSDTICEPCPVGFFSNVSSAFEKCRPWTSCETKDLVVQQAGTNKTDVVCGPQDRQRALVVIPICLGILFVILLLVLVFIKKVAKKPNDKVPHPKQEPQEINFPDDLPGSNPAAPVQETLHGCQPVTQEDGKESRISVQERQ

Platelets Human = Platelets Human (human, UniProt P25942 21-277); experiment: flow cytometry, whole blood; human platelets
Platelets Cynomolgus = target: T3, Platelets Cynomolgus (cynomolgus monkey, UniProt G7PG38 21-278); experiment: flow cytometry, whole blood; cynomolgus platelets
T3 chain: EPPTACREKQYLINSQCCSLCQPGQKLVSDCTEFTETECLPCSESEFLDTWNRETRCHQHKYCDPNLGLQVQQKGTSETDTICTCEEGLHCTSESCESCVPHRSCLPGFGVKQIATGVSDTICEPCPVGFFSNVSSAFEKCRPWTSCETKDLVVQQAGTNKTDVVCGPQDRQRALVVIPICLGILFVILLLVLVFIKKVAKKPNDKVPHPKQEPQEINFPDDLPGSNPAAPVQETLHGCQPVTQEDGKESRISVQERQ

human CD40 (cellular) [2] = target: T1, human CD40 (cellular); experiment: flow cytometry; RAMOS cells; humanized per legend
Target sequence in this assay (P25942 21-277): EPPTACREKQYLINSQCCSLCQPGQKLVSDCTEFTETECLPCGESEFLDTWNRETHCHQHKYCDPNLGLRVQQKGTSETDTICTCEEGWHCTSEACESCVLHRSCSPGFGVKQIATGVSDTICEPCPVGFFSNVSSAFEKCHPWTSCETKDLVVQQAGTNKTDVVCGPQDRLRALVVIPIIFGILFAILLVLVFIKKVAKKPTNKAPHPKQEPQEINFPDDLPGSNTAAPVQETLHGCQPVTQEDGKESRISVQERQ

human CD40 (cellular) [3] = target: T1, human CD40 (cellular); experiment: flow cytometry; CD40-transfected HEK-293 cells; humanized 19B10
human CD40 (cellular) [4] = target: T1, human CD40 (cellular); experiment: flow cytometry; CD40-transfected HEK-293 cells; humanized 10F2

EC50 (human CD40 (cellular) [1]): 1900 pM
B1: Antibody C (antibody, V domains shown)
VH: QVQLVQSGAEVKKPGASVKVSCTASGFNIKDYYVHWVKQAPGQGLEWMGRIDPEDGDSKYAPKFQGKATMTADTSTSTVYMELSSLRSEDTAVYYCTTSYYVGTYGYWGQGTLVTVSS
VL: DIQMTQSPSSLSASVGDRVTITCSASSSVSYMLWFQQKPGKAPKLLIYSTSNLASGVPSRFSGSGSGTDFTLTISSLQPEDFATYYCQQRTFYPYTFGGGTKVEIKR

EC50 (human CD40 (cellular) [1]): 1100 pM
B3: Antibody A (antibody, V domains shown)
VH: EVQLVESGGGLVKPGGSLRLSCAASGFTFSDYGMHWVRQAPGKGLEWVAYISSGNRIIYYADTVKGRFTISRDNAKNSLYLQMNSLRAEDTALYYCARQDGYRYAMDYWAQGTLVTVSS
VL: DIVMTQSPDSLAVSLGERATMSCKSSQSLLNSGNQKNYLTWHQQKPGQPPKLLIYWTSTRESGVPDRFSGSGSGTDFTLTISSLQAEDVAVYYCQNDYTYPLTFGGGTKVEIKR

EC50 (human CD40 (cellular) [2]): 1220 pM
B4: 20E2 (antibody, V domains shown)
VH: EVQLVESGGGLVKPGGSRKLSCAASGFTFSDYGMHWVRQAPEKGLEWVAYISSGNRIIYYADTVKGRFTISRDNAKNTLFLQMTSLRSEDTALYYCARQDGYRYAMDYWGQGTSVTVSS
VL: DIVMTQSPSSLTVTAGEKVTMSCKSSQSLLNSGNQKNYLTWHQQKPGQPPKLLIYWTSTRESGVPDRFTGSGSGTDFTLTISNLQAEDLAVYYCQNDYTYPLTFGAGTKLELK

EC50 (human CD40 (cellular) [3]): 1100 pM
EC50 (human CD40 (cellular) [2]): 360 pM
B5: 19B10 (antibody, V domains shown)
VH: EVQLQQSGAELVRPGASVQLSCTASGFNIKDYYVHWVKQRPEKGLEWIGRIDPEDGDTKFAPKFQGKATMTADTSSNTVYLHLSSLTSEDTAVYYCTTSYYVGTYGYWGQGTTLTVSS
VL: QIVLTQSPAIMSASPGEKVTITCSASSSVSYMLWFQQKPGTSPKLWIYSTSNLASGVPARFSGSGSGTSYSLTISRMEAEDAATYYCQQRTFYPYTFGGGTKLEIK

Continued, binder first:

B2: 4D11 (antibody, V domains shown)
VH: QLQLQESGPGLLKPSETLSLTCTVSGGSISSPGYYGGWIRQPPGKGLEWIGSIYKSGSTYHNPSLKSRVTISVDTSKNQFSLKLSSVTAADTAVYYCTRPVVRYFGWFDPWGQGTLVTVSS
VL: AIQLTQSPSSLSASVGDRVTITCRASQGISSALAWYQQKPGKAPKLLIYDASNLESGVPSRFSGSGSGTDFTLTISSLQPEDFATYYCQQFNSYPTFGQGTKVEIK
EC50 (B cells Human): 300 pM
EC50 (B cells Cynomolgus): 700 pM
EC50 (Platelets Human): 700 pM
EC50 (Platelets Cynomolgus): 1200 pM

B6: 2H11 (antibody, V domains shown)
VH: EVQLQQSGAELVRPGASVKLSCTASGFNIKDYYVHWVKQRPEKGLEWIGRIDPEDGDSKYAPKFQGKATMTADTSSNTAYLHLSSLTSEDTAVYYCTTSYYVGTYGYWGQGTTLTVSS
VL: QIVLTQSPAIMSASPGEKVTITCSASSSVSYMLWFQQKPGTSPKLWIYSTSNLASGVPARFGGSGSGTSYSLTISRMEAEDAATYYCQQRTFYPYTFGGGTKLEIK
EC50 (human CD40 (cellular) [2]): 320 pM

B7: 10F2 (antibody, V domains shown)
VH: EVQLQQSGAELVRPGASVKLSCTASGFNIKDYYIHWVKQRPEKGLEWIGRIDPEDGDTKYDPKFQGKATMTADTSSNTAYLHLSSLTSEDTAVYYCTTSYYVGTYGYWGQGTTLTVSS
VL: QIVLTQSPTIMSASPGEKVIITCSATSSVSYILWFQQKPGTSPKLWIYSTSNLASGVPARFSGSGSGASYSLTISRMEAEDAATYYCQQRTFYPYTFGGGTKLEIK
EC50 (human CD40 (cellular) [4]): 1900 pM
EC50 (human CD40 (cellular) [2]): 210 pM
